Experimental data published in patent publication US12679878B2, “CRF2 receptor agonists and their use in therapy” (SANOFI, priority 2020, dated 2026).
Starred links: 1 amine or outer side, 2 acyl side, 3 side chain; linkers in the order of their positions; H or OH if unused. Non-standard residues stand in square brackets, D forms with d. Groups on a side chain read outwards from the residue. No end group written: not given here. *: point of attachment. C18 diacid = O=C(O)CCCCCCCCCCCCCCCCC(=O)*; γGlu = O=C(O)[C@H](CCC(=O)[*:2])N[*:1]; Palmitoyl = CCCCCCCCCCCCCCCC(=O)*; AEEA = NCCOCCOCC(=O)O; Aib = CC(C)(N)C(=O)O

B1: SEQ ID NO: 86 (peptide)
peptide: IVLSLDVPIKLK([AEEA-AEEA-γGlu-C18 diacid])QILLKQERQKKQREQAKTNKQILAQV-NH2
modifications: N-terminus assumed
SMILES: CC[C@H](C)[C@H](N)C(=O)N[C@H](C(=O)N[C@@H](CC(C)C)C(=O)N[C@@H](CO)C(=O)N[C@@H](CC(C)C)C(=O)N[C@@H](CC(=O)O)C(=O)N[C@H](C(=O)N1CCC[C@H]1C(=O)N[C@H](C(=O)N[C@@H](CCCCN)C(=O)N[C@@H](CC(C)C)C(=O)N[C@@H](CCCCNC(=O)COCCOCCNC(=O)COCCOCCNC(=O)CC[C@H](NC(=O)CCCCCCCCCCCCCCCCC(=O)O)C(=O)O)C(=O)N[C@@H](CCC(N)=O)C(=O)N[C@H](C(=O)N[C@@H](CC(C)C)C(=O)N[C@@H](CC(C)C)C(=O)N[C@@H](CCCCN)C(=O)N[C@@H](CCC(N)=O)C(=O)N[C@@H](CCC(=O)O)C(=O)N[C@@H](CCCNC(=N)N)C(=O)N[C@@H](CCC(N)=O)C(=O)N[C@@H](CCCCN)C(=O)N[C@@H](CCCCN)C(=O)N[C@@H](CCC(N)=O)C(=O)N[C@@H](CCCNC(=N)N)C(=O)N[C@@H](CCC(=O)O)C(=O)N[C@@H](CCC(N)=O)C(=O)N[C@@H](C)C(=O)N[C@@H](CCCCN)C(=O)N[C@H](C(=O)N[C@@H](CC(N)=O)C(=O)N[C@@H](CCCCN)C(=O)N[C@@H](CCC(N)=O)C(=O)N[C@H](C(=O)N[C@@H](CC(C)C)C(=O)N[C@@H](C)C(=O)N[C@@H](CCC(N)=O)C(=O)N[C@H](C(N)=O)C(C)C)[C@@H](C)CC)[C@@H](C)O)[C@@H](C)CC)[C@@H](C)CC)C(C)C)C(C)C
B2: SEQ ID NO: 6 (peptide)
peptide: IVLSLDVPIGLK([γGlu-Palmitoyl])QKLLKQQRQRKERQQAEKNARILARV-NH2
modifications: N-terminus assumed
SMILES: CCCCCCCCCCCCCCCC(=O)N[C@@H](CCC(=O)NCCCC[C@H](NC(=O)[C@H](CC(C)C)NC(=O)CNC(=O)[C@@H](NC(=O)[C@@H]1CCCN1C(=O)[C@@H](NC(=O)[C@H](CC(=O)O)NC(=O)[C@H](CC(C)C)NC(=O)[C@H](CO)NC(=O)[C@H](CC(C)C)NC(=O)[C@@H](NC(=O)[C@@H](N)[C@@H](C)CC)C(C)C)C(C)C)[C@@H](C)CC)C(=O)N[C@@H](CCC(N)=O)C(=O)N[C@@H](CCCCN)C(=O)N[C@@H](CC(C)C)C(=O)N[C@@H](CC(C)C)C(=O)N[C@@H](CCCCN)C(=O)N[C@@H](CCC(N)=O)C(=O)N[C@@H](CCC(N)=O)C(=O)N[C@@H](CCCNC(=N)N)C(=O)N[C@@H](CCC(N)=O)C(=O)N[C@@H](CCCNC(=N)N)C(=O)N[C@@H](CCCCN)C(=O)N[C@@H](CCC(=O)O)C(=O)N[C@@H](CCCNC(=N)N)C(=O)N[C@@H](CCC(N)=O)C(=O)N[C@@H](CCC(N)=O)C(=O)N[C@@H](C)C(=O)N[C@@H](CCC(=O)O)C(=O)N[C@@H](CCCCN)C(=O)N[C@@H](CC(N)=O)C(=O)N[C@@H](C)C(=O)N[C@@H](CCCNC(=N)N)C(=O)N[C@H](C(=O)N[C@@H](CC(C)C)C(=O)N[C@@H](C)C(=O)N[C@@H](CCCNC(=N)N)C(=O)N[C@H](C(N)=O)C(C)C)[C@@H](C)CC)C(=O)O
B3: SEQ ID NO: 87 (peptide)
peptide: IVLSLDVPIKLK([AEEA-AEEA-γGlu-C18 diacid])QILLKQERQKKQREKAKTNKQILAQV-NH2
modifications: N-terminus assumed
SMILES: CC[C@H](C)[C@H](N)C(=O)N[C@H](C(=O)N[C@@H](CC(C)C)C(=O)N[C@@H](CO)C(=O)N[C@@H](CC(C)C)C(=O)N[C@@H](CC(=O)O)C(=O)N[C@H](C(=O)N1CCC[C@H]1C(=O)N[C@H](C(=O)N[C@@H](CCCCN)C(=O)N[C@@H](CC(C)C)C(=O)N[C@@H](CCCCNC(=O)COCCOCCNC(=O)COCCOCCNC(=O)CC[C@H](NC(=O)CCCCCCCCCCCCCCCCC(=O)O)C(=O)O)C(=O)N[C@@H](CCC(N)=O)C(=O)N[C@H](C(=O)N[C@@H](CC(C)C)C(=O)N[C@@H](CC(C)C)C(=O)N[C@@H](CCCCN)C(=O)N[C@@H](CCC(N)=O)C(=O)N[C@@H](CCC(=O)O)C(=O)N[C@@H](CCCNC(=N)N)C(=O)N[C@@H](CCC(N)=O)C(=O)N[C@@H](CCCCN)C(=O)N[C@@H](CCCCN)C(=O)N[C@@H](CCC(N)=O)C(=O)N[C@@H](CCCNC(=N)N)C(=O)N[C@@H](CCC(=O)O)C(=O)N[C@@H](CCCCN)C(=O)N[C@@H](C)C(=O)N[C@@H](CCCCN)C(=O)N[C@H](C(=O)N[C@@H](CC(N)=O)C(=O)N[C@@H](CCCCN)C(=O)N[C@@H](CCC(N)=O)C(=O)N[C@H](C(=O)N[C@@H](CC(C)C)C(=O)N[C@@H](C)C(=O)N[C@@H](CCC(N)=O)C(=O)N[C@H](C(N)=O)C(C)C)[C@@H](C)CC)[C@@H](C)O)[C@@H](C)CC)[C@@H](C)CC)C(C)C)C(C)C
B4: SEQ ID NO: 85 (peptide)
peptide: IVLSLDVPIKLK([AEEA-AEEA-γGlu-C18 diacid])QILLKQERQKKQREQAETNKQILAQV-NH2
modifications: N-terminus assumed
SMILES: CC[C@H](C)[C@H](N)C(=O)N[C@H](C(=O)N[C@@H](CC(C)C)C(=O)N[C@@H](CO)C(=O)N[C@@H](CC(C)C)C(=O)N[C@@H](CC(=O)O)C(=O)N[C@H](C(=O)N1CCC[C@H]1C(=O)N[C@H](C(=O)N[C@@H](CCCCN)C(=O)N[C@@H](CC(C)C)C(=O)N[C@@H](CCCCNC(=O)COCCOCCNC(=O)COCCOCCNC(=O)CC[C@H](NC(=O)CCCCCCCCCCCCCCCCC(=O)O)C(=O)O)C(=O)N[C@@H](CCC(N)=O)C(=O)N[C@H](C(=O)N[C@@H](CC(C)C)C(=O)N[C@@H](CC(C)C)C(=O)N[C@@H](CCCCN)C(=O)N[C@@H](CCC(N)=O)C(=O)N[C@@H](CCC(=O)O)C(=O)N[C@@H](CCCNC(=N)N)C(=O)N[C@@H](CCC(N)=O)C(=O)N[C@@H](CCCCN)C(=O)N[C@@H](CCCCN)C(=O)N[C@@H](CCC(N)=O)C(=O)N[C@@H](CCCNC(=N)N)C(=O)N[C@@H](CCC(=O)O)C(=O)N[C@@H](CCC(N)=O)C(=O)N[C@@H](C)C(=O)N[C@@H](CCC(=O)O)C(=O)N[C@H](C(=O)N[C@@H](CC(N)=O)C(=O)N[C@@H](CCCCN)C(=O)N[C@@H](CCC(N)=O)C(=O)N[C@H](C(=O)N[C@@H](CC(C)C)C(=O)N[C@@H](C)C(=O)N[C@@H](CCC(N)=O)C(=O)N[C@H](C(N)=O)C(C)C)[C@@H](C)CC)[C@@H](C)O)[C@@H](C)CC)[C@@H](C)CC)C(C)C)C(C)C
B5: SEQ ID NO: 88 (peptide)
peptide: IVLSLDVPIKLK([AEEA-AEEA-γGlu-C18 diacid])QILLKQERQKKQREKAKTN[Aib]QILAQV-NH2
modifications: N-terminus assumed
SMILES: CC[C@H](C)[C@H](N)C(=O)N[C@H](C(=O)N[C@@H](CC(C)C)C(=O)N[C@@H](CO)C(=O)N[C@@H](CC(C)C)C(=O)N[C@@H](CC(=O)O)C(=O)N[C@H](C(=O)N1CCC[C@H]1C(=O)N[C@H](C(=O)N[C@@H](CCCCN)C(=O)N[C@@H](CC(C)C)C(=O)N[C@@H](CCCCNC(=O)COCCOCCNC(=O)COCCOCCNC(=O)CC[C@H](NC(=O)CCCCCCCCCCCCCCCCC(=O)O)C(=O)O)C(=O)N[C@@H](CCC(N)=O)C(=O)N[C@H](C(=O)N[C@@H](CC(C)C)C(=O)N[C@@H](CC(C)C)C(=O)N[C@@H](CCCCN)C(=O)N[C@@H](CCC(N)=O)C(=O)N[C@@H](CCC(=O)O)C(=O)N[C@@H](CCCNC(=N)N)C(=O)N[C@@H](CCC(N)=O)C(=O)N[C@@H](CCCCN)C(=O)N[C@@H](CCCCN)C(=O)N[C@@H](CCC(N)=O)C(=O)N[C@@H](CCCNC(=N)N)C(=O)N[C@@H](CCC(=O)O)C(=O)N[C@@H](CCCCN)C(=O)N[C@@H](C)C(=O)N[C@@H](CCCCN)C(=O)N[C@H](C(=O)N[C@@H](CC(N)=O)C(=O)NC(C)(C)C(=O)N[C@@H](CCC(N)=O)C(=O)N[C@H](C(=O)N[C@@H](CC(C)C)C(=O)N[C@@H](C)C(=O)N[C@@H](CCC(N)=O)C(=O)N[C@H](C(N)=O)C(C)C)[C@@H](C)CC)[C@@H](C)O)[C@@H](C)CC)[C@@H](C)CC)C(C)C)C(C)C
B6: SEQ ID NO: 89 (peptide)
peptide: IVLSLDVPIKLK([AEEA-AEEA-γGlu-C18 diacid])QILLKQERQKKQREQAKTN[Aib]QILAQV-NH2
modifications: N-terminus assumed
SMILES: CC[C@H](C)[C@H](N)C(=O)N[C@H](C(=O)N[C@@H](CC(C)C)C(=O)N[C@@H](CO)C(=O)N[C@@H](CC(C)C)C(=O)N[C@@H](CC(=O)O)C(=O)N[C@H](C(=O)N1CCC[C@H]1C(=O)N[C@H](C(=O)N[C@@H](CCCCN)C(=O)N[C@@H](CC(C)C)C(=O)N[C@@H](CCCCNC(=O)COCCOCCNC(=O)COCCOCCNC(=O)CC[C@H](NC(=O)CCCCCCCCCCCCCCCCC(=O)O)C(=O)O)C(=O)N[C@@H](CCC(N)=O)C(=O)N[C@H](C(=O)N[C@@H](CC(C)C)C(=O)N[C@@H](CC(C)C)C(=O)N[C@@H](CCCCN)C(=O)N[C@@H](CCC(N)=O)C(=O)N[C@@H](CCC(=O)O)C(=O)N[C@@H](CCCNC(=N)N)C(=O)N[C@@H](CCC(N)=O)C(=O)N[C@@H](CCCCN)C(=O)N[C@@H](CCCCN)C(=O)N[C@@H](CCC(N)=O)C(=O)N[C@@H](CCCNC(=N)N)C(=O)N[C@@H](CCC(=O)O)C(=O)N[C@@H](CCC(N)=O)C(=O)N[C@@H](C)C(=O)N[C@@H](CCCCN)C(=O)N[C@H](C(=O)N[C@@H](CC(N)=O)C(=O)NC(C)(C)C(=O)N[C@@H](CCC(N)=O)C(=O)N[C@H](C(=O)N[C@@H](CC(C)C)C(=O)N[C@@H](C)C(=O)N[C@@H](CCC(N)=O)C(=O)N[C@H](C(N)=O)C(C)C)[C@@H](C)CC)[C@@H](C)O)[C@@H](C)CC)[C@@H](C)CC)C(C)C)C(C)C

The binders below were run against human corticotropin-releasing factor 2α (CRF2 α receptor) (human), Q13324 (assay: cell-based or functional assay).
Sequence of human corticotropin-releasing factor 2α (CRF2 α receptor) (human), Q13324 (Q13324 20-411): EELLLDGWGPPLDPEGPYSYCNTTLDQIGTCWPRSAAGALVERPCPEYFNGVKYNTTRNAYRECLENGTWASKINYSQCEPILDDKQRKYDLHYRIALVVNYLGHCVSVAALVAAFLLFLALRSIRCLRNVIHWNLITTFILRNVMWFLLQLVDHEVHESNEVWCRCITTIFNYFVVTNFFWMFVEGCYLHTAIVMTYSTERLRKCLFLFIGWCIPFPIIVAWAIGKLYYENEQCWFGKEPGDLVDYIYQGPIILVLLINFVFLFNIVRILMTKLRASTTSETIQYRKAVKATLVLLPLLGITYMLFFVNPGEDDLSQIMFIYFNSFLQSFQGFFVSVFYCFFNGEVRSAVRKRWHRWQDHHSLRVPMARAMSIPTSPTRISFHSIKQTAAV

Row | EC50 [nM], 0% HSA | EC50 [nM], 0.1% HSA | Binder
1 | 0.11 nM | 5.7 nM | B1
2 | 0.16 nM | 0.18 nM | B2
3 | 0.23 nM | 16.2 nM | B3
4 | 0.1 nM | 3.58 nM | B4
5 | 0.68 nM | 25.7 nM | B5
6 | 0.3 nM | 15.6 nM | B6
